IntAct's records for PubMed 30458687

Legend:
[1] = biological target: apoa1_human APOA1 (UniProt P02647)
[2] = biological target: apoa1_human APOA1 (UniProt P02647); remark: listed apart in the source

Sequence of apoa1_human APOA1 (P02647 whole entry): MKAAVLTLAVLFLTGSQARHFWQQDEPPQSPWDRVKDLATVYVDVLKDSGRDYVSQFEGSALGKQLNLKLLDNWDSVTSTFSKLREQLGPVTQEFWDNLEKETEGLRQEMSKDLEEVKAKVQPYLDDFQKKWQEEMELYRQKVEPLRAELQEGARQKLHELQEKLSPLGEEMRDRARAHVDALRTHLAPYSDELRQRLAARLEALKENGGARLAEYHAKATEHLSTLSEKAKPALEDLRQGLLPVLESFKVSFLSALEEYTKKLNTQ

Phospholipid-transporting ATPase ABCA1 (Homo sapiens), O95477 K939M;K1952M
effect of a mutation on the interaction [1]: disrupting interaction strength
effect of a mutation on the interaction [2]: disrupting interaction strength
